In data set [1] the test system is alkylated and reduced resistin.
Data set [2] relates to native resistin.
Chain of native resistin (Q9HD89 19-108): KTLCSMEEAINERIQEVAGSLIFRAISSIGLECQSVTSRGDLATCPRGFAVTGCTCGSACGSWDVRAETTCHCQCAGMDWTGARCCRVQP

Chain of trypsin (P00761 9-231): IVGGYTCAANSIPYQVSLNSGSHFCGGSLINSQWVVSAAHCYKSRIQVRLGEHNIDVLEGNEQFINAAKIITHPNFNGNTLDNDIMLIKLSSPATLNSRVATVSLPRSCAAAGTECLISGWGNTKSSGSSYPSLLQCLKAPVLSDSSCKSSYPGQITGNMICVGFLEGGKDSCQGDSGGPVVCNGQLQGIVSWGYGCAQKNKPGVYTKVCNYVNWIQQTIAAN
Chain of alkylated and reduced resistin (Q9HD89 19-108): as the sequence (Q9HD89 19-108) above

With HIV-1 protease, in data set [1], the “cleavage of resistin in vitro (24 hr digestion, SDS-PAGE)” value (from here on “cleavage of resistin in vitro”) was “incubation with HIV-1 protease, cathepsin D and cathepsin E resulted in the appearance of a ca. 7 kDa resistin cleavage product”.
Turning to cathepsin D, in data set [1], the “cleavage of resistin in vitro” value is “incubation with HIV-1 protease, cathepsin D and cathepsin E resulted in the appearance of a ca. 7 kDa resistin cleavage product”.
As to cathepsin E, in data set [1], the “cleavage of resistin in vitro” value was “incubation with HIV-1 protease, cathepsin D and cathepsin E resulted in the appearance of a ca. 7 kDa resistin cleavage product”.
In the case of trypsin, in data set [2], the “proteolytic cleavage (preliminary protease digestion experiments, data not shown)” value is reported as “native resistin was refractory to proteolytic cleavage by trypsin, suggestive of a highly folded state (data not shown)”. For the same substance, the “cleavage of resistin in vitro” value in data set [1] is on record as “resistin was completely degraded by the non-specific protease, trypsin”.
